Assay results reported in US20130018010A1, “POLYMERIC CONJUGATES OF ADENINE NUCLEOSIDE ANALOGS” (ENZON PHARMACEUTICALS, INC., priority 2010, published 2013).

Key:
[1] = Hydrolysis rate of PEG conjugates in rat plasma (HPLC); type: in vitro ADME; conditions: 37° C., disappearance of PEG derivative
Experimental: The rates of hydrolysis were obtained by employing a C18 reversed phase column (Jupiter®) using a gradient mobile phase consisting of (a) 0.05 M TFA buffer and (b) acetonitrile. A flow rate of 1 mL/min was used, and chromatograms were monitored using a UV detector at 260 nm for toyocamycin. For hydrolysis in plasma, the derivatives were dissolved in acetonitrile/MeOH at a concentration of 20 mg/mL. The solution was divided into vials with 100 μL and the solvent removed in vacuo. To the residue, 100 μL of plasma was added, then vortexed for 10 sec. The solutions were incubated at 37° C. for various periods of time. A mixture of methanol-acetonitrile (1:1, v/v, 400 μL) was added to a vial at the proper interval and the mixture was vortexed for 1 min, followed by filtration through […] filter membrane. An aliquot of 40 μL of the filtrate was injected into the HPLC. On the basis of the peak area, the amounts of native compound and PEG conjugates were estimated, and the half-life of each compound in different media was calculated using linear regression analysis from the disappearance of PEG derivative.
The rate of hydrolysis was measured by monitoring disappearance of polymer conjugates and appearance of the parent molecule by HPLC using the procedure for example as described in Example 4 in PBS and in rat plasma.

[2] = test system: human melanoma cells (A375); assay: Tumor growth inhibition in mice xenografted with human melanoma; type: in vivo; conditions: for tumor growth inhibition: 1 or 5 mg/kg/dose (toyocamycin equivalent) at day 1, 5, 9, 13, compared to toyocamycin i.v. 5 mg/kg/dose, FIG. 18; for tail vein necrosis: 1 or 5 mg/kg/dose at day 1, 5, 9, 13; for effectiveness in the treatment of melanoma: versus untreated, toyocamycin, or 54
Experimental: The antitumor efficacies of compounds 6, 10, and 54 evaluated in human melanoma xenografted mice. Xenograft tumors were established in mice by injecting human melanoma cells (A375). The mice were treated with toyocamycin i.v. at 5 mg/kg/dose, or compounds 6, 10, and 54 at 1 or 5 mg/kg/dose (based on the amount of toyocamycin) at day 1, 5, 9, and 13. Control group mice received saline solution.

40 k 4-Arm PEG-Carbamate-Aib-Toyocamycin [Compound 10]
t1/2 in rat plasma [1]: 4.1 h | tumor growth inhibition [2]: inhibited tumor growth significantly compared to toyocamycin | tail vein necrosis [2]: observed in only one mouse | effectiveness in the treatment of melanoma [2]: more effective in the treatment of melanoma than untreated, toyocamycin, or 54

40 k 4-Arm PEG-carbamate-Leu-Toyocamycin [Compound 6]
t1/2 in rat plasma [1]: 0.033 h | tumor growth inhibition [2]: inhibited tumor growth significantly compared to toyocamycin | tail vein necrosis [2]: observed in only one mouse | effectiveness in the treatment of melanoma [2]: more effective in the treatment of melanoma than untreated, toyocamycin, or 54
